This is an account of results in article PMC5546038.

Test in all cases: ELISA
For orientation: An ELISA detects its analyte on a solid surface through an enzyme-linked reagent.

For one experiment, the target named is human Siglec-1 (UniProt Q9BZZ2). To be noted: Fc 50 µg/ml (highest point of the titration); parent: est. 1.2; read off a plot.
A further experiment deals with human FcγRIIA (UniProt P12318). Conditions: Fc 20 µg/ml (highest point of the titration); parent: est. 0.53; read off a plot.
human FcγRIIA, sequence (P12318 34-217): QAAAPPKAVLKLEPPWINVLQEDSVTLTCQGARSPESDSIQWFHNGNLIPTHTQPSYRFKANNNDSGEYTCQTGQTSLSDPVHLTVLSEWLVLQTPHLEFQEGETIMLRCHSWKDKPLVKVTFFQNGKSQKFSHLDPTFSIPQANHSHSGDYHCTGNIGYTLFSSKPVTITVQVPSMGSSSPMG
A further experiment addresses human FcγRIIB (UniProt P31994). To be noted: Fc 20 µg/ml (highest point of the titration); parent: est. 0.20; read off a plot.
The next experiment has as its target human FcγRIIIA (UniProt P08637). To be noted: Fc 20 µg/ml (highest point of the titration); parent: est. 0.99; read off a plot.
Experiment [1] deals with soluble recombinant tetrameric human DC-SIGN (UniProt Q9NNX6). To be noted: Fc 20 µg/ml (highest point of the titration); parent: est. 0.98; read off a plot.
For a further experiment, the target named is human FcγRI (UniProt P12314). Conditions: Fc 20 µg/ml (highest point of the titration); parent: est. 2.1; read off a plot.
human FcγRI, sequence (P12314 16-292): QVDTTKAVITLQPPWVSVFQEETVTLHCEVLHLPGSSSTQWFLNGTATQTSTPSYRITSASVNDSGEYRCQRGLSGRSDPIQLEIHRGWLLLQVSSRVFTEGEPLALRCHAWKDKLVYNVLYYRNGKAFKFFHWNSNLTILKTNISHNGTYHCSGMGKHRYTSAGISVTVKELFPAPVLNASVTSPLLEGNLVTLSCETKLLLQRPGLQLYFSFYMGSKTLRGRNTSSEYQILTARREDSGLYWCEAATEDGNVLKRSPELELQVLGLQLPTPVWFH
A further experiment concerns the target human FcγRIIIB (UniProt O75015). To be noted: Fc 20 µg/ml (highest point of the titration); parent: est. 0.19; read off a plot.
The target of another experiment is C1q. To be noted: Ab 20 µg/ml (highest point of the titration); parent: est. 1.7; read off a plot.

human FcγRIIB, sequence (P31994 43-217): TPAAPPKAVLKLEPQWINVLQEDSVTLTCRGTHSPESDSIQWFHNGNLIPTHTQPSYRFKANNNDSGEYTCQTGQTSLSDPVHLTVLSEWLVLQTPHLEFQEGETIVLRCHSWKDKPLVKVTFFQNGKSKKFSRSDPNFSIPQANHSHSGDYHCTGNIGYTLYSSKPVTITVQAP
human FcγRIIIB, sequence (O75015 17-200): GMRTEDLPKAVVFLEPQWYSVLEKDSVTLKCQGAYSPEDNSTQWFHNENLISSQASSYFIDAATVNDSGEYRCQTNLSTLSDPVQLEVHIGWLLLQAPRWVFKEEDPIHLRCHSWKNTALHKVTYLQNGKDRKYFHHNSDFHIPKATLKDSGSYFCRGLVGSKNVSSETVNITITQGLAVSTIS
human FcγRIIIA, sequence (P08637 17-208): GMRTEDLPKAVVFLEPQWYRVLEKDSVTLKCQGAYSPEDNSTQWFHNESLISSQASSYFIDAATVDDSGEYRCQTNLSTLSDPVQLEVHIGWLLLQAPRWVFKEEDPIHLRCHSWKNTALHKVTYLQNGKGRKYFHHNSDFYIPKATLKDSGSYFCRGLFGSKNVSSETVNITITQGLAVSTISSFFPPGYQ
human Siglec-1, sequence (Q9BZZ2 20-1641): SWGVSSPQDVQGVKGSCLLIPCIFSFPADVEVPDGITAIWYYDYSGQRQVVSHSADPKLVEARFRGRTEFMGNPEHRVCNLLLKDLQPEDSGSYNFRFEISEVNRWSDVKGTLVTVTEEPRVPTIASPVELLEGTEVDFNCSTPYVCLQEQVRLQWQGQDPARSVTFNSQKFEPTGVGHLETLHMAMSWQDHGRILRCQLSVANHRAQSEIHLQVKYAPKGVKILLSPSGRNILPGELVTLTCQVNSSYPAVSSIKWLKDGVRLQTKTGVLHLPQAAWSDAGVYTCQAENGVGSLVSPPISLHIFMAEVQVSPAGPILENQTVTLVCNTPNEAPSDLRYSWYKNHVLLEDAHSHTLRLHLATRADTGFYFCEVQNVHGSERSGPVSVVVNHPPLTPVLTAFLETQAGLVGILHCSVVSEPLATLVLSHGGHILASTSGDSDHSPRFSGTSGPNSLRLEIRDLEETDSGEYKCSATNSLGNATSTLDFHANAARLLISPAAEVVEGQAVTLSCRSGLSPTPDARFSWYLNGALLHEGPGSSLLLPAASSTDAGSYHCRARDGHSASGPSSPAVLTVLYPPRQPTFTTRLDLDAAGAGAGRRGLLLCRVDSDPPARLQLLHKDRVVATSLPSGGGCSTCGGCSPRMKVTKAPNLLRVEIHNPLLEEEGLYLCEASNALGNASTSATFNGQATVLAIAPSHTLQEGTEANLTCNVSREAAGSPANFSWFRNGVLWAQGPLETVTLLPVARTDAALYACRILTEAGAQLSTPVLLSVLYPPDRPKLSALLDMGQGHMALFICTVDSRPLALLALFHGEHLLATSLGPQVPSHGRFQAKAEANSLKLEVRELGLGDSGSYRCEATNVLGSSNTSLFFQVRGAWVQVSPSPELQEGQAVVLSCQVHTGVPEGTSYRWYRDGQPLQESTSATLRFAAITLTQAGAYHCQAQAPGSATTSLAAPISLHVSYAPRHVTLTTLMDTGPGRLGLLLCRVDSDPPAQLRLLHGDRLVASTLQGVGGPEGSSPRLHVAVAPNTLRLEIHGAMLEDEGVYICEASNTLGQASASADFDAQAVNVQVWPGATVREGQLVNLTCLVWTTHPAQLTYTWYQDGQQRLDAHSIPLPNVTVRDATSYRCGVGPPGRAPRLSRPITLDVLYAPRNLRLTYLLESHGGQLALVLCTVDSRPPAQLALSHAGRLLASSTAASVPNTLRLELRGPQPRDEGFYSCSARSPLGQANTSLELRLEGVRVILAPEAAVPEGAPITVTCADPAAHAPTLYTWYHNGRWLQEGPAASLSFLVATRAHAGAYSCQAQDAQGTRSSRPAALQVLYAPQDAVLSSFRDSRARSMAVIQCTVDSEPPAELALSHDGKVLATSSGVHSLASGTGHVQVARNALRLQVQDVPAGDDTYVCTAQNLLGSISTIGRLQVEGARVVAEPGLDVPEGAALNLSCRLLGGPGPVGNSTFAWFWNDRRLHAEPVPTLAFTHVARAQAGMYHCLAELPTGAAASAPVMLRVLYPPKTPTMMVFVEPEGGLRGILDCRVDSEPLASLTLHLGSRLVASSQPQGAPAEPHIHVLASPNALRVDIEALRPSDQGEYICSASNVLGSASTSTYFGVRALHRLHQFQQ

For the substance “hexa-Fc (human IgG1-Fc with L309C/H310L and the 18-amino acid IgM tail piece) D221N”, the response stood at 1.2 OD 405nm in the experiment with human Siglec-1; 0.12 OD 405nm with human FcγRIIA; 0.08 OD 405nm with human FcγRIIB; 0.09 OD 405nm in the experiment with human FcγRIIIA; 0.64 OD 405nm in experiment [1]; 0.24 OD 405nm in the experiment with human FcγRI. The response in the experiment with human FcγRIIIB was 0.073 OD 405nm; in the experiment with C1q it was 1.8 OD 405nm.

Take “hexa-Fc (human IgG1-Fc with L309C/H310L and the 18-amino acid IgM tail piece) D221N; N297A”: the response with human Siglec-1 amounted to 0.96 OD 405nm; with human FcγRIIA it was 0.065 OD 405nm; with human FcγRIIB it was 0.069 OD 405nm; with human FcγRIIIA, 0.07 OD 405nm; in experiment [1], 0.33 OD 405nm; with human FcγRI it was 0.065 OD 405nm. The response amounted to 0.073 OD 405nm in the experiment with human FcγRIIIB and 0.93 OD 405nm with C1q.

For the substance “hexa-Fc (human IgG1-Fc with L309C/H310L and the 18-amino acid IgM tail piece) D221N; N297A; N563A”, the response was determined as 1.7 OD 405nm with human Siglec-1, 0.37 OD 405nm in experiment [1] and 0.9 OD 405nm with C1q.

With “hexa-Fc (human IgG1-Fc with L309C/H310L and the 18-amino acid IgM tail piece) D221N; N563A”, the response with human Siglec-1 was found to be 1.6 OD 405nm; with human FcγRIIA it was 0.33 OD 405nm; in the experiment with human FcγRIIB it was 0.12 OD 405nm; with human FcγRIIIA, 1.6 OD 405nm; in experiment [1], 0.57 OD 405nm; in the experiment with human FcγRI it was 2 OD 405nm. The response with human FcγRIIIB stood at 0.1 OD 405nm; with C1q, 2.2 OD 405nm.

Turning to “hexa-Fc (human IgG1-Fc with L309C/H310L and the 18-amino acid IgM tail piece) N297A”, the response with human FcγRIIA turned out to be 0.065 OD 405nm; in the experiment with human FcγRIIB, 0.069 OD 405nm; with human FcγRIIIA, 0.07 OD 405nm; in experiment [1], 0.28 OD 405nm; with human FcγRI, 0.065 OD 405nm; in the experiment with human FcγRIIIB, 0.073 OD 405nm. Also, the response with C1q worked out at 0.9 OD 405nm.

As for “hexa-Fc (human IgG1-Fc with L309C/H310L and the 18-amino acid IgM tail piece) N297A; N563A”, the response was 0.15 OD 405nm with human Siglec-1, 0.27 OD 405nm in experiment [1] and 0.97 OD 405nm in the experiment with C1q.

Consider “hexa-Fc (human IgG1-Fc with L309C/H310L and the 18-amino acid IgM tail piece) N563A”, for which the response worked out at 0.84 OD 405nm in experiment [1] and 2.3 OD 405nm with C1q.
